Test system: peptide library, one residue held at a place counted from the S/T acceptor
Assay: relative phosphorylation of the sub-library (ratio to the mean residue at this position); higher = residue favoured
Settings: human
Summary of the method: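 Each biotinylated degenerate peptide sub-library fixed one residue at one position around a central Ser/Thr and was incubated with a purified recombinant kinase, a human or orthologue construct, in 384-well plates. The 90 min reactions, under kinase-specific conditions, contained 50 μM peptide and 50 μM ATP spiked with γ-32P-ATP. Phosphorylation was read by phosphorimaging spots on streptavidin membranes and quantifying them by densitometry. Relative sub-library phosphorylation expresses each value as a ratio to the mean residue at that position.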

Chain of NEK8, construct: aa1-322 (Q86SG6 1-322, looked up): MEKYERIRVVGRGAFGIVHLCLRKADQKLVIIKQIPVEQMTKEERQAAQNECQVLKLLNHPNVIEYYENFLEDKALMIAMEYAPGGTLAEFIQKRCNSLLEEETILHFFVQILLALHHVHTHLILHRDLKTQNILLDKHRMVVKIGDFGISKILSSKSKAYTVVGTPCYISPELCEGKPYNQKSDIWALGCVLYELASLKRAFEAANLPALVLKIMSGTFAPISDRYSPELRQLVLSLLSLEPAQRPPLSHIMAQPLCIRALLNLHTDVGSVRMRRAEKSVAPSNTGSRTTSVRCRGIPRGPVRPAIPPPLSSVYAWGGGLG
Chain of AAK1, construct: aa27-365 (Q2M2I8 27-365, looked up): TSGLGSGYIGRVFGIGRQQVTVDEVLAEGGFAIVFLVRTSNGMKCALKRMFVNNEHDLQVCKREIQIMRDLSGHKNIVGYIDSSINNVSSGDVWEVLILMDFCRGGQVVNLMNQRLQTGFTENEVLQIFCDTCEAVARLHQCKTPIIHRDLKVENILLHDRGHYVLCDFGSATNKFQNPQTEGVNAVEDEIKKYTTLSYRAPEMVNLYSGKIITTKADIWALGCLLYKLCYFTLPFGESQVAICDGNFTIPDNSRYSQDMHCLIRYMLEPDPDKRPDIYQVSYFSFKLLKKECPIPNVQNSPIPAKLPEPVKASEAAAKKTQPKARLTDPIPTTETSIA
Chain of ERN2, construct: aa490-end (Q76MJ5 490-926, looked up): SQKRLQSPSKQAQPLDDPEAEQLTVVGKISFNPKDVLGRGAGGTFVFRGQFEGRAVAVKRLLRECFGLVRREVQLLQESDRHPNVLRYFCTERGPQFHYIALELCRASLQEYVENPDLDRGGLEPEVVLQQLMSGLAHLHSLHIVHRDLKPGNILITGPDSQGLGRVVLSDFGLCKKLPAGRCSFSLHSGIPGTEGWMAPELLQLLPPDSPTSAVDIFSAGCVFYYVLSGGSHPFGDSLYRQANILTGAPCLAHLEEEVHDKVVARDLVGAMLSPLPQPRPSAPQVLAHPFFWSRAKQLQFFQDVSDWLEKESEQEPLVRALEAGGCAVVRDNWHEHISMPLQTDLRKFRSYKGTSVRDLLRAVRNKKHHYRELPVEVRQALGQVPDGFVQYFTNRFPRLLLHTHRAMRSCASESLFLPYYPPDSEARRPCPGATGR
Chain of PASK, construct: aa949-1323 (Q96RG2 949-1323, looked up): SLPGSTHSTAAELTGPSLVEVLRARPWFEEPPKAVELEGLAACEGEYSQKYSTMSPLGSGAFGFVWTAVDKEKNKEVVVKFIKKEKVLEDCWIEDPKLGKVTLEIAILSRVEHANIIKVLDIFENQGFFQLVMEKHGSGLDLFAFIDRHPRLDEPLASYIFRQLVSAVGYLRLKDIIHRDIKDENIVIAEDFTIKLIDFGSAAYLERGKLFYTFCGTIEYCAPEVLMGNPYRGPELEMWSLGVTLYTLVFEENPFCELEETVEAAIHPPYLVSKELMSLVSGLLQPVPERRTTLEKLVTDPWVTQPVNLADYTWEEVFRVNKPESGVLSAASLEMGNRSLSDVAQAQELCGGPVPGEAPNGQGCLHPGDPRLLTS

PASK, construct: aa949-1323 (from UniProt Q96RG2)
relative phosphorylation
Settings | at +1 | at +2 | at +3 | at +4 | at -1 | at -2 | at -3 | at -4 | at -5
A fixed | 0.999 | 0.848 | 0.766 | 0.739 | 0.615 | 1.36 | 0.758 | 0.939 | 0.757
D fixed | 1.04 | 2.11 | 1.66 | 1.65 | 1.2 | 0.778 | 0.63 | 1 | 0.896
E fixed | 1.4 | 1.34 | 1.35 | 1.43 | 0.919 | 0.762 | 0.711 | 1.55 | 0.776
F fixed | 1.07 | 0.829 | 1.14 | 0.825 | 0.491 | 0.814 | 0.565 | 0.779 | 0.72
G fixed | 1.11 | 0.967 | 0.808 | 1.03 | 0.746 | 1.19 | 0.864 | 0.804 | 0.811
H fixed | 1.21 | 1.25 | 1.14 | 1.12 | 0.903 | 1.33 | 0.927 | 1.04 | 2.98
I fixed | 0.665 | 0.664 | 0.583 | 0.748 | 0.384 | 0.493 | 0.425 | 0.663 | 0.742
K fixed | 0.944 | 0.698 | 0.956 | 0.853 | 2.22 | 1.42 | 1.34 | 1.39 | 1.33
L fixed | 0.665 | 0.65 | 0.784 | 0.732 | 0.609 | 0.746 | 0.484 | 0.723 | 1.03
M fixed | 0.914 | 0.758 | 0.823 | 0.764 | 0.665 | 0.774 | 0.55 | 0.829 | 0.909
N fixed | 1.09 | 1.49 | 1.03 | 1.08 | 1.59 | 1.16 | 0.623 | 0.995 | 0.884
P fixed | 0.623 | 0.796 | 1.2 | 1.41 | 2.89 | 1.54 | 1.83 | 1.3 | 0.66
Q fixed | 0.932 | 1.14 | 0.996 | 1.07 | 1.07 | 1.08 | 0.764 | 1.05 | 0.788
R fixed | 0.787 | 0.825 | 0.888 | 0.65 | 0.954 | 1.38 | 4.8 | 1.42 | 1.39
V fixed | 0.854 | 0.71 | 0.591 | 0.668 | 0.447 | 0.638 | 0.433 | 0.68 | 0.625
W fixed | 1.26 | 0.953 | 1.25 | 1.05 | 0.53 | 0.704 | 0.664 | 0.944 | 0.927
Y fixed | 1.45 | 0.966 | 1.04 | 1.18 | 0.774 | 0.835 | 0.635 | 0.9 | 0.775
pThr fixed | 3.06 | 2.97 | 2.92 | 2.7 | 1.02 | 1.43 | 1.04 | 1.25 | 1.11
pTyr fixed | 2.5 | 2.53 | 3.07 | 2.25 | 1.58 | 1.41 | 1.28 | 1.98 | 1.59

ERN2, construct: aa490-end (from UniProt Q76MJ5)
relative phosphorylation
Settings | at +1 | at +2 | at +3 | at +4 | at -1 | at -2 | at -3 | at -4 | at -5
A fixed | 0.889 | 0.315 | 0.399 | 0.712 | 1.08 | 0.826 | 0.865 | 0.986 | 0.969
D fixed | 0.292 | 0.208 | 0.22 | 0.365 | 0.7 | 0.969 | 0.947 | 0.892 | 0.961
E fixed | 0.428 | 0.217 | 0.165 | 0.347 | 1.19 | 1.29 | 1.02 | 0.918 | 0.87
F fixed | 0.683 | 0.733 | 1.24 | 0.849 | 0.953 | 0.865 | 0.676 | 0.677 | 0.695
G fixed | 1.16 | 0.332 | 0.407 | 0.844 | 0.758 | 1.11 | 1.32 | 1.04 | 1.01
H fixed | 0.924 | 0.767 | 1.27 | 1.08 | 1.6 | 1.08 | 1.17 | 1.17 | 1.24
I fixed | 0.78 | 1.09 | 1.22 | 1.04 | 0.459 | 0.672 | 0.792 | 0.732 | 0.796
K fixed | 2.19 | 2.21 | 1.39 | 1.94 | 0.955 | 1.43 | 1.12 | 1.53 | 1.6
L fixed | 0.702 | 1.39 | 1.38 | 0.935 | 0.58 | 0.592 | 0.66 | 0.693 | 0.691
M fixed | 1.24 | 1.32 | 0.95 | 0.996 | 0.951 | 0.814 | 0.861 | 0.751 | 0.704
N fixed | 0.997 | 0.507 | 0.441 | 0.763 | 0.986 | 1.1 | 1.21 | 1.38 | 1.17
P fixed | 0.247 | 0.305 | 0.346 | 1.15 | 1.47 | 1.37 | 1.09 | 0.914 | 0.915
Q fixed | 1.44 | 0.787 | 0.591 | 1.04 | 1.42 | 1.25 | 1.27 | 1.14 | 1.14
R fixed | 2.95 | 2.57 | 3.56 | 1.81 | 0.94 | 1.5 | 1.42 | 1.57 | 1.78
V fixed | 0.809 | 1.16 | 0.669 | 0.86 | 0.927 | 0.732 | 0.776 | 0.759 | 0.704
W fixed | 0.572 | 0.72 | 1.45 | 1.21 | 0.798 | 0.651 | 0.875 | 0.994 | 0.893
Y fixed | 0.694 | 2.36 | 1.3 | 1.04 | 1.23 | 0.769 | 0.941 | 0.858 | 0.858
pThr fixed | 0.298 | 0.212 | 0.237 | 0.355 | 0.355 | 0.648 | 0.798 | 0.779 | 0.732
pTyr fixed | 0.286 | 0.235 | 0.283 | 0.296 | 0.692 | 0.694 | 0.652 | 0.474 | 0.562

NEK8, construct: aa1-322 (from UniProt Q86SG6)
relative phosphorylation
Settings | at +1 | at +2 | at +3 | at +4 | at -1 | at -2 | at -3 | at -4 | at -5
A fixed | 0.671 | 0.695 | 0.727 | 0.752 | 0.875 | 0.751 | 0.814 | 0.847 | 0.971
D fixed | 0.407 | 0.332 | 0.655 | 0.562 | 1.08 | 1.53 | 0.918 | 1.68 | 1.61
E fixed | 0.37 | 0.28 | 0.459 | 0.527 | 1.16 | 1.09 | 0.764 | 1.25 | 1.09
F fixed | 1.97 | 1.12 | 1.7 | 1.11 | 0.777 | 0.882 | 0.995 | 0.89 | 1.02
G fixed | 0.654 | 0.656 | 0.992 | 0.944 | 0.602 | 1.09 | 0.975 | 0.936 | 1.05
H fixed | 1 | 1.01 | 1.16 | 0.97 | 0.967 | 0.963 | 1.05 | 0.983 | 1.04
I fixed | 0.826 | 0.761 | 0.74 | 0.815 | 0.555 | 0.679 | 0.69 | 0.606 | 0.658
K fixed | 0.933 | 2.05 | 1.4 | 1.81 | 1.5 | 0.755 | 0.799 | 0.918 | 1.08
L fixed | 1.06 | 0.845 | 1.04 | 0.978 | 1.11 | 1.25 | 1.56 | 0.792 | 0.771
M fixed | 2.03 | 0.89 | 0.95 | 0.97 | 1.36 | 0.959 | 1.52 | 0.858 | 0.76
N fixed | 0.945 | 0.841 | 1.05 | 1.02 | 1.11 | 1 | 0.837 | 1.09 | 1.06
P fixed | 0.239 | 0.525 | 0.826 | 1.32 | 0.433 | 0.485 | 0.878 | 0.926 | 1.11
Q fixed | 1.33 | 0.836 | 0.861 | 1.12 | 1.34 | 0.75 | 0.924 | 0.839 | 0.935
R fixed | 1.34 | 3.13 | 1.54 | 1.54 | 1.72 | 1.59 | 1.84 | 0.966 | 0.956
V fixed | 0.7 | 0.798 | 0.628 | 0.66 | 0.63 | 0.625 | 0.465 | 0.597 | 0.712
W fixed | 1.29 | 0.948 | 1.26 | 1.03 | 0.775 | 1.33 | 1.05 | 2.01 | 1.3
Y fixed | 1.24 | 1.28 | 1.02 | 0.86 | 0.999 | 1.26 | 0.924 | 0.805 | 0.871
pThr fixed | 0.717 | 0.574 | 0.612 | 0.672 | 0.593 | 1.01 | 1.17 | 1.13 | 1.4
pTyr fixed | 0.64 | 0.439 | 0.819 | 0.583 | 1.42 | 1.66 | 1.3 | 1.05 | 1.38

AAK1, construct: aa27-365 (from UniProt Q2M2I8)
relative phosphorylation
Settings | at +1 | at +2 | at +3 | at +4 | at -1 | at -2 | at -3 | at -4 | at -5
A fixed | 0.53 | 1.27 | 0.989 | 1.1 | 0.654 | 0.915 | 1.9 | 1.2 | 0.482
D fixed | 0.174 | 0.939 | 0.688 | 0.662 | 0.274 | 1.37 | 0.462 | 0.565 | 0.273
E fixed | 0.167 | 0.89 | 0.631 | 0.778 | 0.248 | 1.08 | 0.629 | 0.951 | 0.26
F fixed | 0.219 | 0.826 | 0.731 | 0.89 | 0.926 | 0.571 | 0.828 | 0.883 | 0.722
G fixed | 12.3 | 1.27 | 1.57 | 1.19 | 1.2 | 0.48 | 0.87 | 1.09 | 0.416
H fixed | 0.272 | 1.05 | 1.15 | 0.951 | 1.17 | 0.963 | 0.676 | 0.874 | 0.564
I fixed | 0.173 | 0.629 | 0.659 | 0.706 | 0.739 | 0.642 | 1.02 | 1.06 | 2.64
K fixed | 0.33 | 0.98 | 1.26 | 1.41 | 2.09 | 0.998 | 0.879 | 1.38 | 0.445
L fixed | 0.222 | 0.703 | 0.831 | 0.783 | 1.11 | 0.968 | 0.896 | 1.26 | 1.69
M fixed | 0.21 | 0.817 | 0.743 | 0.789 | 0.941 | 1.98 | 1.33 | 1.18 | 1.47
N fixed | 0.289 | 1.42 | 1.25 | 1.01 | 0.737 | 1.37 | 0.989 | 0.73 | 0.468
P fixed | 0.787 | 0.896 | 1.16 | 1.07 | 1.93 | 0.385 | 1.84 | 0.908 | 1.22
Q fixed | 0.235 | 1.31 | 1.06 | 1.08 | 0.675 | 2.58 | 1.18 | 1.07 | 0.952
R fixed | 0.423 | 1.32 | 1.53 | 1.58 | 1.57 | 0.943 | 0.987 | 1.22 | 1.62
V fixed | 0.182 | 0.922 | 1.04 | 0.718 | 0.666 | 0.578 | 1.09 | 1.05 | 1.62
W fixed | 0.276 | 0.973 | 0.817 | 1.4 | 0.748 | 0.492 | 0.722 | 0.686 | 0.535
Y fixed | 0.243 | 0.78 | 0.905 | 0.886 | 1.32 | 0.678 | 0.699 | 0.908 | 1.62
pThr fixed | 0.209 | 0.696 | 0.57 | 0.427 | 0.206 | 0.356 | 0.514 | 0.564 | 0.342
pTyr fixed | 0.171 | 0.697 | 0.61 | 0.46 | 0.303 | 0.826 | 0.466 | 0.576 | 1.04
